Legend:
Assay in all cases: IEDB peptide-MHC binding, purified MHC/competitive/fluorescence; filed as Kd, often an IC50 or EC50 that approximates it; ≥ and ≤ were set here for values at or beyond the usual limits of such assays
Conditions in all cases: source organism: Lyssavirus rabies
HLA-B*58:01 = target: HLA-B*58:01
HLA-B*27:05 = target: HLA-B*27:05
HLA-B*40:01 = target: HLA-B*40:01
HLA-B*14:02 = target: HLA-B*14:02
HLA-B*44:02 = target: HLA-B*44:02
HLA-A*30:01 = target: HLA-A*30:01
HLA-B*53:01 = target: HLA-B*53:01
HLA-B*08:01 = target: HLA-B*08:01
HLA-A*11:01 = target: HLA-A*11:01

Measured: Kd

YLDNVGVHI
≥ 5 µM: all assays above

— the Immune Epitope Database (IEDB)
